Among the data in the RNAGym collection of RNA variant scans (doi:10.7554/elife.80360) are self-cleavage values, retold here.

To fix the notation:
B1: Hairpin Ribozyme (parent)
chain: GUCCUCUUUCACGUGCGCGUGAAAGAGAGAAGUGAACCAGAGAAACACACGUUGUGGUAUAUUACCUGGUA

The series covers variants of B1. Nature of the series: self-cleavage, relative activity (ratio to wild type); higher = more cleavage; co-transcriptional.
With U8C G68A, the self-cleavage is 0.186. As for U8C G68U, the figure is 0.154; as for U7C G54U, 0.242. Regarding U7C G54C, the self-cleavage was determined as 0.683. With U8C U52C, the self-cleavage is 0.405. For U8C U52G, the self-cleavage is 0.709. The same measure for U8A A44G: 0.173; for U8A A44C: 0.213; for C6U U63A: 0.207. As for U7G A28U, the self-cleavage amounted to 0.498. As to U7G C48G, the self-cleavage was determined as 0.153. Regarding U8G A35U, the self-cleavage came to 0.673. Turning to U7G G27U, the self-cleavage came out at 0.226. Take U7G G27C: the self-cleavage was 0.152. The same measure for U8G A45U: 0.118. U7C A22U: the self-cleavage was determined as 0.642. Regarding U7G U55G, the self-cleavage turned out to be 0.215. Take U7G U53C: the self-cleavage came out at 0.84. As for U7G A35C, the figure is 0.757; as for U8C A35U, 0.679; as for U8C A35C, 0.876. As to U8A A61U, the self-cleavage turned out to be 0.191. As for U8A G54U, the self-cleavage stood at 0.524.

For U7C A39C, the self-cleavage is 0.583.

With U7C A39U, the self-cleavage was found to be 0.465. On to U7C A39G, for which the self-cleavage worked out at 0.263. For U7C G29A, the self-cleavage was 0.204. U7C G29U: the self-cleavage amounted to 0.178. For U8A U52A, the self-cleavage is 0.658. Consider U8A U52G, for which the self-cleavage was 0.518. For the variant U8C U62A, the self-cleavage is 0.192. Turning to U8C U62G, the self-cleavage was determined as 0.144. On to U8C U62C, for which the self-cleavage was 0.201.

Turning to U8C G32U, the self-cleavage is 0.0859. U8A C10U: the self-cleavage amounted to 0.643. For the variant U8A C10G, the self-cleavage turned out to be 0.44.

In the case of U7A U8G, the self-cleavage is 0.925. U7G A59C: the self-cleavage was found to be 0.0534.

Regarding U8A U55C, the self-cleavage amounted to 0.322. Consider U8A U55G, for which the self-cleavage was determined as 0.268. U8A U55A: the self-cleavage is 0.184. For the variant U7A C50U, the self-cleavage amounted to 0.364.

Regarding U7G G15U, the self-cleavage is 0.955. U8A U70C: the self-cleavage was found to be 0.816. For the variant U8A U70G, the self-cleavage is 0.585. Consider U8A A30G, for which the self-cleavage was determined as 0.13.

As for U8A U62G, the self-cleavage came to 0.123. Turning to U7G G51A, the self-cleavage amounted to 0.891. For the variant U8A A47G, the self-cleavage stood at 0.187. For the variant U7C A35C, the self-cleavage stood at 0.612. Take U7A G40U: the self-cleavage is 0.18. For the variant U7A G40C, the self-cleavage was determined as 0.166. As for U8C G54U, the figure is 0.453; as for U8C G54A, 0.378; as for U8C C37A, 0.214.

U8C U58G: the self-cleavage was determined as 0.327.

Turning to U7C U53A, the self-cleavage came to 1.3. For U7C U53G, the self-cleavage worked out at 0.686. As for U8A U33C, the self-cleavage turned out to be 0.137.

With U7C G32A, the self-cleavage is 0.0904.

Regarding U7C A23C, the self-cleavage was found to be 0.455.

As for U7C A30G, the self-cleavage came to 0.0858. In the case of U8C G19U, the self-cleavage amounted to 0.582. On to U7G A36C, for which the self-cleavage was determined as 0.669. On to U8C G34C, for which the self-cleavage came to 1.16. On to U7G G69A, for which the self-cleavage amounted to 0.398. As for U7G G69U, the figure is 0.166; as for U7G G69C, 0.191. Regarding U7A U33C, the self-cleavage was found to be 0.151. The same measure for U7A U60A: 0.893. As for U7G G21C, the self-cleavage came to 0.332. U7C A36C: the self-cleavage was 0.679. Take U8A A41C: the self-cleavage was determined as 0.82.

For U8A A41U, the self-cleavage was 0.843. Regarding U8A C50G, the self-cleavage came to 0.21. In the case of U8G A31C, the self-cleavage was determined as 0.13. Turning to U8A G21A, the self-cleavage was 0.618. The same measure for U7C C38U: 0.211; for U7C C38A: 0.185. On to U7A A11U, for which the self-cleavage is 0.649. As for U7A A11G, the self-cleavage is 0.855. In the case of U7A A59G, the self-cleavage was determined as 0.194. On to U7A A59C, for which the self-cleavage amounted to 0.136. Regarding U8C G13C, the self-cleavage amounted to 0.834. The same measure for U7C C50G: 0.229. Consider U7C C50A, for which the self-cleavage was 0.209. As to U7C A43G, the self-cleavage is 0.0623. As to U7C A49U, the self-cleavage was 0.135. For the variant U8C U67A, the self-cleavage is 0.161. With U8A A43G, the self-cleavage came to 0.13. Consider U7C A26C, for which the self-cleavage is 0.275. As for U7C A26G, the self-cleavage was 0.667.

Regarding U8G A22C, the self-cleavage turned out to be 0.556. On to U8G A30U, for which the self-cleavage was 0.186.

With U7C G27U, the self-cleavage is 0.222.

U8C A11G: the self-cleavage is 0.458.

Regarding U7G U33A, the self-cleavage worked out at 0.131. As for U7G U33C, the self-cleavage worked out at 0.113. With U7A A64C, the self-cleavage was 0.194. For the variant U7A G68U, the self-cleavage was determined as 0.238. Regarding U7C U62A, the self-cleavage is 0.288.

In the case of U7G C66A, the self-cleavage stood at 0.205. Take U8C C10A: the self-cleavage was found to be 0.363. U7A U53G: the self-cleavage amounted to 0.688. As for U7G G34U, the figure is 1.22; as for U7C A11C, 0.525; as for U7C C37U, 0.494.

Turning to U8A G29A, the self-cleavage was found to be 0.183. With U8C A45U, the self-cleavage is 0.257. As for U8C A45C, the figure is 0.065. With U7G A39U, the self-cleavage is 0.421. Regarding U7G A39G, the self-cleavage is 0.377. Consider U7C A59U, for which the self-cleavage stood at 0.178. As for U8A A49G, the figure is 0.366; as for U8A A49U, 0.148. As for U8A A49C, the figure is 0.165. As for U8C G69C, the figure is 0.164. Turning to U8A U67C, the self-cleavage stood at 0.186. In the case of U8A U67A, the self-cleavage was found to be 0.196. For the variant U7C A24G, the self-cleavage is 0.628. As for U8G A47G, the figure is 0.0909.

U7A A23C: the self-cleavage is 0.894.

For U7C A64U, the self-cleavage came out at 0.0591.

On to U8G A41C, for which the self-cleavage came out at 0.801.

On to U7C A41G, for which the self-cleavage was determined as 0.845.

In the case of U7G U63C, the self-cleavage worked out at 0.143. U7G A30U: the self-cleavage amounted to 0.0317.

As to U7G A44G, the self-cleavage stood at 0.16. On to U8A A64C, for which the self-cleavage was 0.181. The same measure for U8A A64U: 0.151; for U8C G40C: 0.0998; for U7C G19A: 0.559.

With U7C G19C, the self-cleavage was found to be 0.683. Turning to U7C C18U, the self-cleavage is 1.06. With U7C C18A, the self-cleavage was 0.973.

Regarding U7C C18G, the self-cleavage came to 0.732. Consider U7A A24G, for which the self-cleavage stood at 0.702. As for U8C C18U, the figure is 0.779; as for U8C C18A, 0.787. As for U7C G51C, the self-cleavage was 0.489. Take U7C G51U: the self-cleavage was determined as 1.1. Regarding U7A G54U, the self-cleavage was found to be 0.589. The same measure for U7A C46U: 0.159; for U7A C46G: 0.108; for U8C A49C: 0.216.

Turning to U7C G56U, the self-cleavage turned out to be 0.188. The same measure for U7A C16G: 0.779; for U7A C16U: 0.85; for U7C G34C: 1.37. As to U7A A45U, the self-cleavage came out at 0.261. As for U7A A45G, the figure is 0.204; as for U8C A24U, 0.369.

With U7G C65G, the self-cleavage was 0.31. The same measure for U7G C65A: 0.975.

Regarding U7G C16U, the self-cleavage was found to be 0.932. On to U7G C16G, for which the self-cleavage was 0.689. As to U8C A71C, the self-cleavage turned out to be 1.11. As for U8C A71U, the figure is 0.569; as for C6U U62C, 0.188. Regarding U8A U14A, the self-cleavage came out at 0.642. As to U8A U14G, the self-cleavage is 0.401. Regarding U7G A61G, the self-cleavage worked out at 0.0998. For the variant U7G G57U, the self-cleavage is 0.175.

Take U7G G40A: the self-cleavage amounted to 0.308. As for U7G G40C, the self-cleavage was 0.207.

On to U8A G40A, for which the self-cleavage was 0.235. For the variant U7G A47G, the self-cleavage is 0.174.
